Measured values from article PMC9308218, “FBXL17/spastin axis as a novel therapeutic target of hereditary spastic paraplegia” (Cell & Bioscience, 2022).

Molecular target: T1, USP20 (Ubiquitin Specific Peptidase 20) on the HuProt protein microarray (human, UniProt Q9Y2K6 1-914)
T1 construct: ubiquitin specific peptidase 20, human, spot on the HuProt array of full-length recombinant human proteins; source: bought: HuProt protein microarray (CDI Labs), recombinant
Assay: peptide or protein array; HuProt human protein microarray (over 20,000 full-length recombinant human proteins); 3 μg biotinylated His-SPAST on the array for 8 h at 4 °C; detected with streptavidin-Alexa-Fluor 635
Settings: both partners purified

T1 sequence (Q9Y2K6 whole entry): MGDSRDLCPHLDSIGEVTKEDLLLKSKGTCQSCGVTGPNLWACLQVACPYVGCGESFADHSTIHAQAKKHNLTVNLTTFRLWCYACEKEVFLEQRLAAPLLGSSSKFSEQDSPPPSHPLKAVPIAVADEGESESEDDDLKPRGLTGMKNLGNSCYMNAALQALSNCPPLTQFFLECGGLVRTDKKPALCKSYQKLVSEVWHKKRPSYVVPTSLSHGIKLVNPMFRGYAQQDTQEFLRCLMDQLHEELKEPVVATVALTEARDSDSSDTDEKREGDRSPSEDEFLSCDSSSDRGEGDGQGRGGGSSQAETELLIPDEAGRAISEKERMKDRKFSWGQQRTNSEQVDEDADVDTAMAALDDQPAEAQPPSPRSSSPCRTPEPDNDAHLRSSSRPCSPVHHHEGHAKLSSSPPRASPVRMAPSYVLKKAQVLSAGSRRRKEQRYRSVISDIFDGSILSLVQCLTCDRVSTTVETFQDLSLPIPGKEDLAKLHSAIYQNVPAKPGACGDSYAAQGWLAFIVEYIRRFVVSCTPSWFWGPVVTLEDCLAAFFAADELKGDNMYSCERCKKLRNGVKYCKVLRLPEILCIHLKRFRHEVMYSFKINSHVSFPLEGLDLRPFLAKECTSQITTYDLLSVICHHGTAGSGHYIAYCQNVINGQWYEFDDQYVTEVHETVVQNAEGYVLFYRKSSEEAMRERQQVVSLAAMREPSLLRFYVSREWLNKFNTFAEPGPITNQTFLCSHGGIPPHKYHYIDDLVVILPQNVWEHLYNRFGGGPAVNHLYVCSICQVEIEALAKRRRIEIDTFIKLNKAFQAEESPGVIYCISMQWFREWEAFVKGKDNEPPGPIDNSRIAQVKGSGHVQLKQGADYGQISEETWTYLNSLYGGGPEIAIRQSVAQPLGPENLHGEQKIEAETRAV

binding result: binds
B1: biotinylated His-SPAST-M1 (natural protein, human, UniProt Q9UBP0 1-616, looked up)
chain: MNSPGGRGKKKGSGGASNPVPPRPPPPCLAPAPPAAGPAPPPESPHKRNLYYFSYPLFVGFALLRLVAFHLGLLFVWLCQRFSRALMAAKRSSGAAPAPASASAPAPVPGGEAERVRVFHKQAFEYISIALRIDEDEKAGQKEQAVEWYKKGIEELEKGIAVIVTGQGEQCERARRLQAKMMTNLVMAKDRLQLLEKMQPVLPFSKSQTDVYNDSTNLACRNGHLQSESGAVPKRKDPLTHTSNSLPRSKTVMKTGSAGLSGHHRAPSYSGLSMVSGVKQGSGPAPTTHKGTPKTNRTNKPSTPTTATRKKKDLKNFRNVDSNLANLIMNEIVDNGTAVKFDDIAGQDLAKQALQEIVILPSLRPELFTGLRAPARGLLLFGPPGNGKTMLAKAVAAESNATFFNISAASLTSKYVGEGEKLVRALFAVARELQPSIIFIDEVDSLLCERREGEHDASRRLKTEFLIEFDGVQSAGDDRVLVMGATNRPQELDEAVLRRFIKRVYVSLPNEETRLLLLKNLLCKQGSPLTQKELAQLARMTDGYSGSDLTALAKDAALGPIRELKPEQVKNMSASEMRNIRLSDFTESLKKIKRSVSPQTLEAYIRWNKDFGDTTV
modifications: biotin (biotinylated, site not stated)
notes: The methods call it His-SPAST; the results call it His-SPAST-M1; also called His-tagged SPAST protein; source: E. coli BL21 (pET28a-His-SPAST), purified (Ni-NTA)
